Data published in patent publication US20060257938A1, “Method of screening for drugs that block ligand binding to a lipid binding protein” (priority 2005, published 2006).
“And” between values parts separate entries of the source, which are not always exact repeats. Equal entries are not always repeated.

Key:
Type in all cases: binding
[1] = Probe fluorescence ratio response to arachidonic acid relative to ADIFAB2; settings: arachidonic acid; response relative to ADIFAB2
Outline: (§1)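 Fluorescently labeled rat intestinal FABP variants were read at two emission wavelengths, near the unbound maximum (about 420 to 480 nm) and the FFA-bound maximum (about 495 to 580 nm). R = Fλ1/Fλ2 after subtracting probe-free intensity; ΔR = R+agent − R0, normalized to ADIFAB2 (rI-FABP-L72A).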

[2] = Probe fluorescence ratio response to linolenic acid relative to ADIFAB2; settings: response relative to ADIFAB2
Outline: as §1

[3] = Probe fluorescence ratio response to linoleic acid relative to ADIFAB2; settings: response relative to ADIFAB2
Outline: as §1

[4] = Probe fluorescence ratio response to oleic acid relative to ADIFAB2; settings: response relative to ADIFAB2
Outline: as §1

[5] = Probe fluorescence ratio response to palmitic acid relative to ADIFAB2; settings: response relative to ADIFAB2
Outline: as §1

Molecule | DR/DR AA [1] | DR/DR LNA [2] | DR/DR LA [3] | DR/DR OA [4] | DR/DR PA [5]
17K 72A (protein, listed as Rattus norvegicus, PEPTIDE (1)...(131) wild-type rat intestinal fatty acid binding protein) AFDGTWKVDRNENYEKKMEKMGINVVKRKLGAHDNLKLTITQEGNKFTVKESSNFRNIDVVFELGVDFAYSAADGTELTGTWTMEGNKLVGKFKRVDNGKELIAVREISGNELIQTYTYEGVEAKRIFKKE | 0.28 | 0.29 | 0.33 | 0.31 | 0.13
17Q, 72A (protein, listed as Rattus norvegicus, PEPTIDE (1)...(131) wild-type rat intestinal fatty acid binding protein) AFDGTWKVDRNENYEKQMEKMGINVVKRKLGAHDNLKLTITQEGNKFTVKESSNFRNIDVVFELGVDFAYSAADGTELTGTWTMEGNKLVGKFKRVDNGKELIAVREISGNELIQTYTYEGVEAKRIFKKE | 0.62 | 0.59 | 0.59 | 0.55 | 0.29
17V, 72A (protein, listed as Rattus norvegicus, PEPTIDE (1)...(131) wild-type rat intestinal fatty acid binding protein) AFDGTWKVDRNENYEKVMEKMGINVVKRKLGAHDNLKLTITQEGNKFTVKESSNFRNIDVVFELGVDFAYSAADGTELTGTWTMEGNKLVGKFKRVDNGKELIAVREISGNELIQTYTYEGVEAKRIFKKE | 0.64 and 0.639 | 0.59 and 0.586 | 0.55 and 0.549 | 0.56 and 0.558 | 0.31 and 0.308
17R, 72A (protein, listed as Rattus norvegicus, PEPTIDE (1)...(131) wild-type rat intestinal fatty acid binding protein) AFDGTWKVDRNENYEKRMEKMGINVVKRKLGAHDNLKLTITQEGNKFTVKESSNFRNIDVVFELGVDFAYSAADGTELTGTWTMEGNKLVGKFKRVDNGKELIAVREISGNELIQTYTYEGVEAKRIFKKE | 0.43 | 0.48 | 0.52 | 0.45 | 0.22
17P, 72A (protein, listed as Rattus norvegicus, PEPTIDE (1)...(131) wild-type rat intestinal fatty acid binding protein) AFDGTWKVDRNENYEKPMEKMGINVVKRKLGAHDNLKLTITQEGNKFTVKESSNFRNIDVVFELGVDFAYSAADGTELTGTWTMEGNKLVGKFKRVDNGKELIAVREISGNELIQTYTYEGVEAKRIFKKE | 0.51 | 0.63 | 0.60 | 0.55 | 0.24
17S, 72A (protein, listed as Rattus norvegicus, PEPTIDE (1)...(131) wild-type rat intestinal fatty acid binding protein) AFDGTWKVDRNENYEKSMEKMGINVVKRKLGAHDNLKLTITQEGNKFTVKESSNFRNIDVVFELGVDFAYSAADGTELTGTWTMEGNKLVGKFKRVDNGKELIAVREISGNELIQTYTYEGVEAKRIFKKE | 0.50 | 0.61 | 0.56 | 0.47 | 0.25
18Q, 72A (protein, listed as Rattus norvegicus, PEPTIDE (1)...(131) wild-type rat intestinal fatty acid binding protein) AFDGTWKVDRNENYEKFQEKMGINVVKRKLGAHDNLKLTITQEGNKFTVKESSNFRNIDVVFELGVDFAYSAADGTELTGTWTMEGNKLVGKFKRVDNGKELIAVREISGNELIQTYTYEGVEAKRIFKKE | 0.09 | 0.13 | 0.11 | 0.08 | 0.09
17Y, 72A (protein, listed as Rattus norvegicus, PEPTIDE (1)...(131) wild-type rat intestinal fatty acid binding protein) AFDGTWKVDRNENYEKYMEKMGINVVKRKLGAHDNLKLTITQEGNKFTVKESSNFRNIDVVFELGVDFAYSAADGTELTGTWTMEGNKLVGKFKRVDNGKELIAVREISGNELIQTYTYEGVEAKRIFKKE | 0.73 and 0.729 | 0.81 and 0.806 | 0.71 and 0.712 | 0.73 and 0.732 | 0.50
17M, 72A (protein, listed as Rattus norvegicus, PEPTIDE (1)...(131) wild-type rat intestinal fatty acid binding protein) AFDGTWKVDRNENYEKMMEKMGINVVKRKLGAHDNLKLTITQEGNKFTVKESSNFRNIDVVFELGVDFAYSAADGTELTGTWTMEGNKLVGKFKRVDNGKELIAVREISGNELIQTYTYEGVEAKRIFKKE | 0.59 | 0.53 and 0.532 | 0.49 and 0.489 | 0.49 | 0.28 and 0.281
21W, 72A (protein, listed as Rattus norvegicus, PEPTIDE (1)...(131) wild-type rat intestinal fatty acid binding protein) AFDGTWKVDRNENYEKFMEKWGINVVKRKLGAHDNLKLTITQEGNKFTVKESSNFRNIDVVFELGVDFAYSAADGTELTGTWTMEGNKLVGKFKRVDNGKELIAVREISGNELIQTYTYEGVEAKRIFKKE | 3.70 | 2.40 | 2.43 | 3.02 | 1.45
17N, 72A (protein, listed as Rattus norvegicus, PEPTIDE (1)...(131) wild-type rat intestinal fatty acid binding protein) AFDGTWKVDRNENYEKNMEKMGINVVKRKLGAHDNLKLTITQEGNKFTVKESSNFRNIDVVFELGVDFAYSAADGTELTGTWTMEGNKLVGKFKRVDNGKELIAVREISGNELIQTYTYEGVEAKRIFKKE | 0.47 | 0.51 | 0.50 | 0.49 | 0.22
17T, 72A (protein, listed as Rattus norvegicus, PEPTIDE (1)...(131) wild-type rat intestinal fatty acid binding protein) AFDGTWKVDRNENYEKTMEKMGINVVKRKLGAHDNLKLTITQEGNKFTVKESSNFRNIDVVFELGVDFAYSAADGTELTGTWTMEGNKLVGKFKRVDNGKELIAVREISGNELIQTYTYEGVEAKRIFKKE | 0.50 | 0.51 | 0.51 | 0.49 | 0.25
17L, 72A (protein, listed as Rattus norvegicus, PEPTIDE (1)...(131) wild-type rat intestinal fatty acid binding protein) AFDGTWKVDRNENYEKLMEKMGINVVKRKLGAHDNLKLTITQEGNKFTVKESSNFRNIDVVFELGVDFAYSAADGTELTGTWTMEGNKLVGKFKRVDNGKELIAVREISGNELIQTYTYEGVEAKRIFKKE | 0.52 and 0.525 | 0.45 and 0.447 | 0.42 | 0.46 and 0.459 | 0.28 and 0.279
17W, 72A (protein, listed as Rattus norvegicus, PEPTIDE (1)...(131) wild-type rat intestinal fatty acid binding protein) AFDGTWKVDRNENYEKWMEKMGINVVKRKLGAHDNLKLTITQEGNKFTVKESSNFRNIDVVFELGVDFAYSAADGTELTGTWTMEGNKLVGKFKRVDNGKELIAVREISGNELIQTYTYEGVEAKRIFKKE | 1.42 and 1.421 | 1.61 and 1.611 | 1.42 and 1.416 | 1.24 and 1.241 | 1.07 and 1.067
23F2, 72A (protein, listed as Rattus norvegicus, PEPTIDE (1)...(131) wild-type rat intestinal fatty acid binding protein) AFDGTWKVDRNENYEKFMEKMGFNVVKRKLGAHDNLKLTITQEGNKFTVKESSNFRNIDVVFELGVDFAYSAADGTELTGTWTMEGNKLVGKFKRVDNGKELIAVREISGNELIQTYTYEGVEAKRIFKKE | 0.22 | 0.17 | 0.19 | 0.20 | 0.12
